Measured values from patent US20180291083A1 (IMMATICS BIOTECHNOLOGIES, published 2018).

target: T1, HLA-B*44:02 (human); assay: UV ligand exchange ELISA; exchange yield grade
T1 construct: Peptide-receptive MHC class I monomer made by UV cleavage of a UV-sensitive ligand
Excerpt: Candidate peptides for T cell based therapies according to the present invention were further tested for their MHC binding capacity (affinity). The individual peptide-MHC complexes were produced by UV-ligand exchange, where a UV-sensitive peptide is cleaved upon UV-irradiation, and exchanged with the peptide of interest as analyzed. Only peptide candidates that can effectively bind and stabilize the peptide-receptive MHC molecules prevent dissociation of the MHC complexes. To determine the yield of the exchange reaction, an ELISA was performed based on the detection of the light chain (β2m) of stabilized MHC complexes. The assay was performed as generally described in Rodenko et al. (Rodenko et al., 2006).
96 well MAXISorp plates (NUNC) were coated over night with 2 ug/ml streptavidin in PBS at room temperature, washed 4× and blocked for 1 h at 37° C. in 2% BSA containing blocking buffer. Refolded HLA-A*02:01/MLA-001 monomers served as standards, covering the range of 15-500 ng/ml. Peptide-MHC monomers of the UV-exchange reaction were diluted 100-fold in blocking buffer. Samples were incubated for 1 h at 37° C., washed four times, incubated with 2 ug/ml HRP conjugated anti-β2m for 1 h at 37° C., washed again and detected with TMB solution that is stopped with […]. Absorption was measured at 450 nm. Candidate peptides that show a high exchange yield (preferably higher than 50%, most preferred higher than 75%) are generally preferred for a generation and production of antibodies or fragments thereof, and/or T cell receptors or fragments thereof, as they show sufficient avidity to the MHC molecules and prevent dissociation of the MHC complexes.

Binder | peptide exchange yield
SEKETVAYF | 50 to 75%
NEIKVYITF | 50 to 75%
VELDLQRSV | 20 to 50%
KELPGVKKY | 20 to 50%
TEGKRYFTW | 50 to 75%
RENQVLGSGW | 50 to 75%
REYEYDLKWEF | 50 to 75%
AEPLVGQRW | 50 to 75%
EENKPGIVY | 20 to 50%
SDAQRPSSF | 10 to 20%
REYNEYENI | 20 to 50%
SESLPKEAF | 20 to 50%
KEFEQVPGHL | 20 to 50%
FEVESLFQKY | 50 to 75%
GELGGSVTI | 50 to 75%
SESKTVVTY | 50 to 75%
EENPGKFLF | 50 to 75%
SENEQRRMF | 50 to 75%
TEIFKEHNF | 20 to 50%
EEVTDRSQL | 20 to 50%
YEYDLKWEF | 50 to 75%
REYEHYWTEL | 50 to 75%
TDKSFPNAY | 10 to 20%

Binder | peptide exchange yield
AEYKGRVTL | > 75%
EENGEVKEL | 20 to 50%
SEYSHLTRV | 20 to 50%
QENMQIQSF | 50 to 75%
TEYPVFVY | 10 to 20%
AENAVSNLSF | 20 to 50%
GELLGRQSF | 50 to 75%
AQNLSIIQY | 20 to 50%
GENEDNRIGL | 20 to 50%
SEGDNVESW | 50 to 75%
QEIQSLLTNW | 50 to 75%
EEGDTLLHLF | 50 to 75%
DEAQARAAF | 20 to 50%
SQAPAARAF | 20 to 50%
EYDLKWEF | 20 to 50%
KEFFFVKVF | 50 to 75%
EEEHGKGREY | 20 to 50%
AEPGPVITW | 50 to 75%
SEYADTHYF | 50 to 75%
KEYDFGTQL | 20 to 50%
VEDGLFHEF | 50 to 75%
SEDLAVHLY | 20 to 50%
EEPAFNVSY | 20 to 50%

Binder | peptide exchange yield
NEFPVIVRL | 50 to 75%
GESQDSTTAL | 20 to 50%
AEIKQTEEKY | 20 to 50%
EEETILHFF | 20 to 50%
KEIGAAVQAL | 50 to 75%
GEIKEPLEI | 20 to 50%
SESTFDRTF | 50 to 75%
EEFETIERF | 20 to 50%
AELLAKELY | 20 to 50%
NEVLASKY | 10 to 20%
HEIDGKALFL | 20 to 50%
EVDASIFKAW | 20 to 50%
GELPAVRDL | 20 to 50%
RMPPFTQAF | 20 to 50%
EEWMGLLEY | > 75%
AEHNFVAKA | 50 to 75%
GEGAYGKVF | > 75%
NEQKIVRF | 10 to 20%
GENDRLNHTY | 20 to 50%
KEVPRSYEL | 20 to 50%
VEIAEAIQL | 50 to 75%
